T1: Puf5p RNA-binding domain (Saccharomyces cerevisiae, UniProt P39016 201-600)
T1 sequence: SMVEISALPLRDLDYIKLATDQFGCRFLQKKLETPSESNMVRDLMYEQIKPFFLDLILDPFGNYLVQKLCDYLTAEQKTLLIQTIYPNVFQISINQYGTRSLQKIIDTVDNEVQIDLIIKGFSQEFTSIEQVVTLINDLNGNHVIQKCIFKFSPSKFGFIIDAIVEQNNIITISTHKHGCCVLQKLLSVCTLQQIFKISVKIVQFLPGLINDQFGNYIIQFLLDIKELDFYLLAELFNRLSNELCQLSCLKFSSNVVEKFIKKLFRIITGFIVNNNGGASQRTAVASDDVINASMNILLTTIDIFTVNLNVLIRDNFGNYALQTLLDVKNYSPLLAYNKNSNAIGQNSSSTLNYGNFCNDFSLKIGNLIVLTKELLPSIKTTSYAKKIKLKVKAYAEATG


Molecular target: T1, Puf5p RNA-binding domain
Assay: EMSA; EMSA: 10 mM HEPES pH 7.4, 50 mM NaCl, 1 mM EDTA, 0.1 mg/ml BSA, 0.01% Tween 20, 0.1 mg/ml yeast tRNA, 100 pM RNA, overnight at 4 C

Row | Binder | Kd [nM]
1 | UGUAUAUA (ssRNA) [NRE (8)] | 3200
2 | UGUACUAUA (ssRNA) [SMX2 (9)] | 28.4
3 | UGUAUUUGUA (ssRNA) [MFA2 (10)] | 179
4 | UGUAAUGAUUA (ssRNA) [AAT2 (11)] | 345
5 | UGUAACUUUUUA (ssRNA) [AMN1 (12)] | 106
